The source of these data is article PMC12170172, “Initiation of ERAD by the bifunctional complex of Mnl1/Htm1 mannosidase and protein disulfide isomerase” (Nature Structural & Molecular Biology, 2025).

What all share (conditions): both partners purified
Assay [1] addresses T1, Mnl1 (C579S;C644S)–Pdi1 complex (S. cerevisiae, UniProt P38888 21-796; P17967 29-522, C579S | C644S).
T1 construct: Mnl1 (Htm1) of S. cerevisiae with both loop cysteines substituted; Pdi1 of S. cerevisiae, untagged; also called double-cysteine mutant; source: S. cerevisiae, overexpressed, purified (anti-FLAG M2 resin, Superdex 200); not shown: FLAG, C-terminal, kept
T1 sequence (looked up) 1: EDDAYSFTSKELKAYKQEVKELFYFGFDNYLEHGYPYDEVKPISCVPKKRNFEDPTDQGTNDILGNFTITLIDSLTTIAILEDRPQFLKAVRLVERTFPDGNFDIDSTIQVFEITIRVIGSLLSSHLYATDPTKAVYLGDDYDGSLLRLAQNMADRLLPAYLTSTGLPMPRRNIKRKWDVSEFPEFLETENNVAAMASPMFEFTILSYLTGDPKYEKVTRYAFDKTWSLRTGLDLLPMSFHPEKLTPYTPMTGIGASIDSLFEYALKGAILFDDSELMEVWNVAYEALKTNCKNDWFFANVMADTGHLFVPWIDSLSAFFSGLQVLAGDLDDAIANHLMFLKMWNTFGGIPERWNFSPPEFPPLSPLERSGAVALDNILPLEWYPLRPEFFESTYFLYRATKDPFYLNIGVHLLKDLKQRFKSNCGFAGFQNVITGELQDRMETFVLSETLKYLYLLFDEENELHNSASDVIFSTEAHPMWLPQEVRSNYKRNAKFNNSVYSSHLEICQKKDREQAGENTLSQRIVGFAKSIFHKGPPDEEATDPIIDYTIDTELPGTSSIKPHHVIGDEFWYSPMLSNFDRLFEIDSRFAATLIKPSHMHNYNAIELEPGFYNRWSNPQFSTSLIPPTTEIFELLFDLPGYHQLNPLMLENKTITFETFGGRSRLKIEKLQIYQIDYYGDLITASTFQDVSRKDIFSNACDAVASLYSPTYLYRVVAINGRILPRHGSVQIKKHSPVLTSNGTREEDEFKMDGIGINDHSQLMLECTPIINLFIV
T1 sequence (looked up) 2: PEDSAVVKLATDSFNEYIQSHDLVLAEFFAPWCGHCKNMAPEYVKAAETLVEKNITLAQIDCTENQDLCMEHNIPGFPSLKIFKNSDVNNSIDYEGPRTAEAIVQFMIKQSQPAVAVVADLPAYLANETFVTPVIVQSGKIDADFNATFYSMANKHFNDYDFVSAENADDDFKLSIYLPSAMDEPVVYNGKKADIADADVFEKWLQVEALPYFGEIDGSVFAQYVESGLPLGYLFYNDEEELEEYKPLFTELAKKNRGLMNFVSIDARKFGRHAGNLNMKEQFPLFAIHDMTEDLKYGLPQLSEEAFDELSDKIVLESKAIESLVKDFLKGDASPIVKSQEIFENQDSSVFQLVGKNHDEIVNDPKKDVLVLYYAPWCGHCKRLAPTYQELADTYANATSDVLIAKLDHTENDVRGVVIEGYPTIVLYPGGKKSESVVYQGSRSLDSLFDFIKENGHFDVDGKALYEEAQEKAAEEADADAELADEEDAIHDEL
Put plainly: pull-down; as a6, but the Mnl1–Pdi1 complex was pretreated with DPS to induce disulfides between the Mnl1 loop cysteines and the active-site cysteines of Pdi1.

The target of assay [2] is T2, Mnl1 (C579S)–Pdi1 complex (S. cerevisiae, UniProt P38888 21-796; P17967 29-522, C579S).
T2 construct: Mnl1 (Htm1) of S. cerevisiae with a substituted loop cysteine; Pdi1 of S. cerevisiae, untagged; source: S. cerevisiae, overexpressed, purified (anti-FLAG M2 resin, Superdex 200); not shown: FLAG, C-terminal, kept
T2 sequence (looked up) 1: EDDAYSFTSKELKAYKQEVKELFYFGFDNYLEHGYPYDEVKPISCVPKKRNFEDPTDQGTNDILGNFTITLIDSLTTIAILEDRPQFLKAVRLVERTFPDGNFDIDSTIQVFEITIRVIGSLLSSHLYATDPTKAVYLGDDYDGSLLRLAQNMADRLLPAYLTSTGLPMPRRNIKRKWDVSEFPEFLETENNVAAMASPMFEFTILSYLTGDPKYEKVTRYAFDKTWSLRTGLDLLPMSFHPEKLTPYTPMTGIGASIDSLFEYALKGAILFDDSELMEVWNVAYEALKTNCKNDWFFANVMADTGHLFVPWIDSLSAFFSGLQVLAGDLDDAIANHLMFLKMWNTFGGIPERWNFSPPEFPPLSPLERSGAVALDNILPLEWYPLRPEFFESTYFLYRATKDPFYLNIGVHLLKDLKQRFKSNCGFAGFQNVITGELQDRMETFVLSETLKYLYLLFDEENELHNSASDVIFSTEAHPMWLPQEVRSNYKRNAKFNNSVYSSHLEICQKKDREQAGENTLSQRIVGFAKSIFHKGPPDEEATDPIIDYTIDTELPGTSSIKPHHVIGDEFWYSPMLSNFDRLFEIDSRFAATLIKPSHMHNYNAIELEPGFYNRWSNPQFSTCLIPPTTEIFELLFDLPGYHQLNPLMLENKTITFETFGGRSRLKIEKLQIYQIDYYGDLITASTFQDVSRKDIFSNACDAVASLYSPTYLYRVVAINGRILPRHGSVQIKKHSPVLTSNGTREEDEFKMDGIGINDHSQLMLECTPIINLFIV
T2 sequence (looked up) 2: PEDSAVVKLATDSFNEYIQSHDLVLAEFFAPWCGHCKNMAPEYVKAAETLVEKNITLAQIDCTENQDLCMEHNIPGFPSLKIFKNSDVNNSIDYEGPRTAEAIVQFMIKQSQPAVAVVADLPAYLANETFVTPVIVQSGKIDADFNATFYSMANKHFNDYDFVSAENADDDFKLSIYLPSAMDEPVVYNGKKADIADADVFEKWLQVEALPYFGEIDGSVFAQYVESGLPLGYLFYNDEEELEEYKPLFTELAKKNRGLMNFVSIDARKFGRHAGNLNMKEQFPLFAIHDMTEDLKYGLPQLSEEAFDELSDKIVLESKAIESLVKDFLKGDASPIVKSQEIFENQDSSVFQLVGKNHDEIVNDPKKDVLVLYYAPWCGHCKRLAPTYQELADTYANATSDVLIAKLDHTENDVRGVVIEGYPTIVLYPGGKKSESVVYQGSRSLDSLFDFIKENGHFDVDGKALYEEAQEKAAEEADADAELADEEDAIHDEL
The description is as above.

Assay [3] has as its target T3, Pdi1 (protein disulfide isomerase) (S. cerevisiae, UniProt P17967 29-522).
T3 construct: Pdi1, protein disulfide isomerase of S. cerevisiae, untagged; Trx domains a, b, b′ and a′; amino acids 24–500 could be modelled; source: S. cerevisiae, overexpressed together with Mnl1–FLAG (GAL1 promoter), purified as a complex
T3 sequence (looked up): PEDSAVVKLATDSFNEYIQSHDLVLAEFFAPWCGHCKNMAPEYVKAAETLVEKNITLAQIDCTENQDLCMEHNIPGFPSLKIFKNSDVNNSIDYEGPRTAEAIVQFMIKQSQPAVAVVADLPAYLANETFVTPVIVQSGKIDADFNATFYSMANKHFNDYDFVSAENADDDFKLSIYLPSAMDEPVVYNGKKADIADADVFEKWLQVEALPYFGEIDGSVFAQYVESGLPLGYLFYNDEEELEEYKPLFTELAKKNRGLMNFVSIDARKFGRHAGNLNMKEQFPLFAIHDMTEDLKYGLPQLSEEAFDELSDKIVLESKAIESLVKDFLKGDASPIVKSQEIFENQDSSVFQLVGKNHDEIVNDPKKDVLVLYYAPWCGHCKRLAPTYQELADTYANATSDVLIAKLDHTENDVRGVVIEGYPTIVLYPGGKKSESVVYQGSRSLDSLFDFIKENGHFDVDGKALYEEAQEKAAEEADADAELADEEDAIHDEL
Kind of assay: cross-linking; competition: RBΔS, RBun or RBsc incubated with Mnl1–Pdi1 complex at the indicated molar ratios (tenfold excess in Fig. 6) in 25 mM HEPES pH 7.4, 150 mM NaCl, 0.1% Nonidet P-40, 2 mM CaCl2, 30 °C 30 min; then DPS 30 °C 30 min, N-ethylmaleimide; SDS-PAGE, Coomassie blue.

B1: RNase B, completely unfolded (reduced and denatured) (enzyme, UniProt P61823 27-150, looked up)
chain: KETAAAKFERQHMDSSTSAASSSNYCNQMMKSRNLTKDRCKPVNTFVHESLADVQAVCSQKNVACKNGQTNCYQSYSTMSITDCRETGSSKYPNCAYKTTQANKHIIVACEGNPYVPVHFDASV
modifications: N-glycan; cysteines reduced; DyLight 680 (NHS ester) label in the pull-downs
notes: RNase B, reduced and denatured; also called RBun; unfolded RNase B; source: prepared from RB with 6 M guanidine hydrochloride and 100 mM DTT, denaturants removed by dialysis and a desalting column
Take B1: the binding result in assay [1] and in assay [2] was “binds” throughout. In addition, in assay [3], the “molar excess for half-maximal inhibition of the Mnl1–Pdi1 disulfide adduct” value stood at 2 fold molar excess.
